This is an account of results in IntAct's records for PubMed 17057713.

First the molecules themselves.
B1: A-type potassium channel modulatory protein KCNIP1 (Homo sapiens), Q9NZI2 (parent)
chain: MGAVMGTFSSLQTKQRRPSKDIAWWYYQYQRDKIEDELEMTMVCHRPEGLEQLEAQTNFTKRELQVLYRGFKNECPSGVVNEDTFKQIYAQFFPHGDASTYAHYLFNAFDTTQTGSVKFEDFVTALSILLRGTVHEKLRWTFNLYDINKDGYINKEEMMDIVKAIYDMMGKYTYPVLKEDTPRQHVDVFFQKMDKNKDGIVTLDEFLESCQEDDNIMRSLQLFQNVM
partner: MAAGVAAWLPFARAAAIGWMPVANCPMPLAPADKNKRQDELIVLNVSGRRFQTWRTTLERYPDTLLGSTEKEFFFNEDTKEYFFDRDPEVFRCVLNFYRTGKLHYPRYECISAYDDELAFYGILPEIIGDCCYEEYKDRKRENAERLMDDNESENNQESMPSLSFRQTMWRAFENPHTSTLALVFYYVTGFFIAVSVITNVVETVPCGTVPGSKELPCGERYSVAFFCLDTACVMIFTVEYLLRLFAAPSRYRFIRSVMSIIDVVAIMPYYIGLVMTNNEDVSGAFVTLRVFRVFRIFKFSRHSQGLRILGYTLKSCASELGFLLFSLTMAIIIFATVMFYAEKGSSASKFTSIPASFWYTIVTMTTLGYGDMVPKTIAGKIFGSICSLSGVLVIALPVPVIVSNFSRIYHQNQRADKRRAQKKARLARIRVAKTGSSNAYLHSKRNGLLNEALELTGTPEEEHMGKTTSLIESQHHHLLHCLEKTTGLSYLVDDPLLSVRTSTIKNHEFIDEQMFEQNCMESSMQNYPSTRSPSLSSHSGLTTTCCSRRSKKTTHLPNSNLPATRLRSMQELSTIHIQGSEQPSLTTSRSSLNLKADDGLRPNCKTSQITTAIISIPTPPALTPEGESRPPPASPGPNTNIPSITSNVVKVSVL

In this assay the parent is B1. As to conditions: with kcnd3_rat Kcnd3, Q62897.
Turning to D146A;D194A, the “effect of a mutation on the interaction” value is recorded as “decreasing interaction strength”.
